From PMC6044951 come the findings set out here.

Substrate in the data set: O=c1ccn([C@@H]2O[C@H](CO[P@@](=O)(O)O[P@@](=O)(O)O[C@H]3O[C@H](CO)[C@@H](O)[C@H](O)[C@H]3O)[C@@H](O)[C@H]2O)c(=O)[nH]1
Kind of data set: purified protein. Conditions: 30 °C, Michaelis-Menten fit.

B1: BcsA-BcsB (Cereibacter sphaeroides 2.4.1) (protein)
chain: MTVRAKARSPLRVVPVLLFLLWVALLVPFGLLAAAPVAPSAQGLIALSAVVLVALLKPFADKMVPRFLLLSAASMLVMRYWFWRLFETLPPPALDASFLFALLLFAVETFSISIFFLNGFLSADPTDRPFPRPLQPEELPTVDILVPSYNEPADMLSVTLAAAKNMIYPARLRTVVLCDDGGTDQRCMSPDPELAQKAQERRRELQQLCRELGVVYSTRERNEHAKAGNMSAALERLKGELVVVFDADHVPSRDFLARTVGYFVEDPDLFLVQTPHFFINPDPIQRNLALGDRCPPENEMFYGKIHRGLDRWGGAFFCGSAAVLRRRALDEAGGFAGETITEDAETALEIHSRGWKSLYIDRAMIAGLQPETFASFIQQRGRWATGMMQMLLLKNPLFRRGLGIAQRLCYLNSMSFWFFPLVRMMFLVAPLIYLFFGIEIFVATFEEVLAYMPGYLAVSFLVQNALFARQRWPLVSEVYEVAQAPYLARAIVTTLLRPRSARFAVTAKDETLSENYISPIYRPLLFTFLLCLSGVLATLVRWVAFPGDRSVLLVVGGWAVLNVLLVGFALRAVAEKQQRRAAPRVQMEVPAEAQIPAFGNRSLTATVLDASTSGVRLLVRLPGVGDPHPALEAGGLIQFQPKFPDAPQLERMVRGRIRSARREGGTVMVGVIFEAGQPIAVRETVAYLIFGESAHWRTMREATMRPIGLLHGMARILWMAAASLPKTARDFMDEPARRRRRHEEPKEKQAHLLAFGTDFSTEPDWAGELLDPTAQVSARPNTVAWGSN
As to B1, the Km is 340 ± 70 µM and the kcat was determined as 0.43 ± 0.17 s⁻¹.

Broadly, the Km is the substrate concentration at which the rate is half of its maximum. The term kcat denotes the number of substrate molecules converted per active site and unit of time at saturation.
